pKd: −log10 of the molar value.

As a reminder, the stoichiometry N is a count of units in the complex or per binding partner. As usually defined, the pKd is the Kd on a negative log10 scale, so that one unit is a factor of ten. Read a low pKd as a large Kd.

For experiment [1], the target named is Cdh23 EC1-3 (mouse). In words: SEC; analytical SEC, Superdex 200 increase 10/300, 100 μM injected, 25 mM HEPES, 25 mM KCl, 50 mM NaCl, 2 mM CaCl2, pH 7.5; 4 °C. Background: Size exclusion chromatography separates by hydrodynamic size, large species first.
The target in experiment [2] is Cdh23 EC1 (WT) (mouse) (UniProt Q99PF4). Briefly: AUC; sedimentation velocity, 142 000 g, 20 °C, pH 7.6, 25 mM HEPES, 50 mM NaCl, 25 mM KCl, 2 mM CaCl2; EC1-2 WT at 36 μM, EC1-2 E78K at 30 μM or ~440 μM, EC1 at 45 μM.
The target is the same in experiment [3]. In words: AUC; sedimentation equilibrium at three rotor speeds, 20 °C, pH 7.6, 25 mM HEPES, 50 mM NaCl, 25 mM KCl, 2 mM CaCl2; global fit to monomer-dimer equilibrium (SEDPHAT); dimer to monomers.
Experiment [4] has the same target. Briefly: single-molecule force spectroscopy (AFM); protein anchored by its C terminus to cantilever and to coverslip (sortagging, PEG 5 kDa spacers); seven loading rates, contact time 500 ms; Bell-Evans fit.
Experiment [5] deals with Cdh23 EC1-2 (WT) (mouse) (UniProt Q99PF4). Briefly: SAXS; proteins at 10 mg·mL^-1 in solution, SAXSpace instrument; 10 °C (methods).
Experiment [6] has the same target. Briefly: SEC; analytical SEC, Superdex 200 increase 10/300, 100 μM injected, 25 mM HEPES, 25 mM KCl, 50 mM NaCl, 2 mM CaCl2, pH 7.5; 4 °C.
Experiment [7] has the same target. Briefly: AUC; sedimentation velocity, 142 000 g, 20 °C, pH 7.6, 25 mM HEPES, 50 mM NaCl, 25 mM KCl, 2 mM CaCl2; EC1-2 WT at 36 μM, EC1-2 E78K at 30 μM or ~440 μM, EC1 at 45 μM.
For experiment [8] the target is unchanged. In words: AUC; sedimentation equilibrium at three rotor speeds, 20 °C, pH 7.6, 25 mM HEPES, 50 mM NaCl, 25 mM KCl, 2 mM CaCl2; global fit to monomer-dimer equilibrium (SEDPHAT); dimer to monomers.
For experiment [9] the target is unchanged. In words: single-molecule force spectroscopy (AFM); protein anchored by its C terminus to cantilever and to coverslip (sortagging, PEG 5 kDa spacers); seven loading rates, contact time 500 ms; Bell-Evans fit.

Turning to Cdh23 EC1-3 (domain or fragment), in [1], the stoichiometry N amounted to 2.
For “Cdh23 EC1 (WT) (from UniProt Q99PF4 24-124) (domain or fragment)”, the stoichiometry N in [2] was found to be 2. The substance also had a pKd in experiment [3] of 4.28. In addition, in experiment [4], the probability of events is 10%.
As to “Cdh23 EC1-2 (WT) (from UniProt Q99PF4 24-228) (domain or fragment)”, the stoichiometry N in experiment [5], in experiment [6] and in experiment [7] was 2 in each case. The substance also gave a pKd in experiment [8] of 4.74. The intrinsic lifetime at zero force (τ0), high-force distribution in [9] stood at 1220 s. The intrinsic lifetime at zero force (τ0), low-force distribution in experiment [9] stood at 1.86 s. Further, the probability of events in [9] was 6%.
